# Laboratory results taken from the supplement of paper PMC10567573.
# B1: MFF (parent)
# chain: MAEISRIQYEMEYTEGISQRMRVP
# Variants of: B1
# Experiment: protein stability index of a GFP-peptide fusion (GPS, HEK-293T) (PSI 1-6); higher = more stable
# Conditions: c terminus: a fixed tail appended
# 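Also: lentivirally expressed fusions sorted by FACS into six bins by GFP to DsRed ratio, PSI derived from sequencing read proportions per bin multiplied by bin number.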
row,Variant,protein stability index
1,MAKISRIQYEMEYTEGISQRMRVP [E3K],2.3
2,MAMISRIQYEMEYTEGISQRMRVP [E3M],1.91
3,MADISRIQYEMEYTEGISQRMRVP [E3D],2.58
4,MAPISRIQYEMEYTEGISQRMRVP [E3P],3.31
5,MAEISRHQYEMEYTEGISQRMRVP [I7H],3
6,MAEISRLQYEMEYTEGISQRMRVP [I7L],2.29
7,MAEISRSQYEMEYTEGISQRMRVP [I7S],3.51
8,MAEISRMQYEMEYTEGISQRMRVP [I7M],2.93
9,MAEISRFQYEMEYTEGISQRMRVP [I7F],2.69
10,MAEISRWQYEMEYTEGISQRMRVP [I7W],2.02
11,MAEISRPQYEMEYTEGISQRMRVP [I7P],3.37
12,MAEISRYQYEMEYTEGISQRMRVP [I7Y],2.58
13,MAEISRRQYEMEYTEGISQRMRVP [I7R],3.33
14,MAEISRIQYCMEYTEGISQRMRVP [E10C],1.99
15,MAEISRIQYDMEYTEGISQRMRVP [E10D],2.74
16,MAEISRIQYMMEYTEGISQRMRVP [E10M],2.08
17,MAEISRIQYYMEYTEGISQRMRVP [E10Y],2.09
18,MAEISRIQYQMEYTEGISQRMRVP [E10Q],2.76
19,MAEISRIQYAMEYTEGISQRMRVP [E10A],2.15
20,MAEISRIQYIMEYTEGISQRMRVP [E10I],1.6
21,MAEISRIQYRMEYTEGISQRMRVP [E10R],2.05
22,MAEISRIQYKMEYTEGISQRMRVP [E10K],2.66
23,MAEISRIQYHMEYTEGISQRMRVP [E10H],2.42
24,MAEISRIQYPMEYTEGISQRMRVP [E10P],3.04

row,Variant,protein stability index
1,MAEISRIQYGMEYTEGISQRMRVP [E10G],2.67
2,MAEITRIQYEMEYTEGISQRMRVP [S5T],2.02
3,MAEIMRIQYEMEYTEGISQRMRVP [S5M],1.34
4,MAEIERIQYEMEYTEGISQRMRVP [S5E],2.95
5,MAEIWRIQYEMEYTEGISQRMRVP [S5W],2.46
6,MAEIHRIQYEMEYTEGISQRMRVP [S5H],2.47
7,MAEIVRIQYEMEYTEGISQRMRVP [S5V],2.02
8,MAEIARIQYEMEYTEGISQRMRVP [S5A],1.72
9,MAEIFRIQYEMEYTEGISQRMRVP [S5F],1.71
10,MAEISRIQYEMEYTEIISQRMRVP [G16I],1.62
11,MAEISRIQYEMEYTEDISQRMRVP [G16D],3.02
12,MAEISRIQYEMEYTEAISQRMRVP [G16A],2.69
13,MAEISRIQYEMEYTEFISQRMRVP [G16F],1.82
14,MAEISRIQYEMEYTEWISQRMRVP [G16W],2.04
15,MAEISRIQYEMEYTEHISQRMRVP [G16H],2.02
16,MAEISRIQYEMEYTECISQRMRVP [G16C],2.02
17,MAEISRIQYEMEYTELISQRMRVP [G16L],1.9
18,MAEISRIQYEMEYTKGISQRMRVP [E15K],2.43
19,MAEISRIQYEMEYTFGISQRMRVP [E15F],2.17
20,MAEISRIQYEMEYTVGISQRMRVP [E15V],1.62
21,MAEISRIQYEMEYTYGISQRMRVP [E15Y],2.03
22,MAEISRIQYEMEYTNGISQRMRVP [E15N],3.14
23,MAEISRIQYEMEYTAGISQRMRVP [E15A],2.1
24,MAEISRIQYEMEYTDGISQRMRVP [E15D],2.64

row,Variant,protein stability index
1,MAEISRIQYEMMYTEGISQRMRVP [E12M],1.84
2,MAEISRIQYEMCYTEGISQRMRVP [E12C],1.98
3,MAEISRIQYEMFYTEGISQRMRVP [E12F],1.34
4,MAEISRIQYEMWYTEGISQRMRVP [E12W],2.12
5,MAEISRIQYEMYYTEGISQRMRVP [E12Y],1.76
6,MAEISRIQYEMTYTEGISQRMRVP [E12T],1.86
7,MAEISRIQYEMSYTEGISQRMRVP [E12S],2.42
8,MFEISRIQYEMEYTEGISQRMRVP [A2F],1.58
9,MHEISRIQYEMEYTEGISQRMRVP [A2H],2.45
10,MEEISRIQYEMEYTEGISQRMRVP [A2E],3.33
11,MKEISRIQYEMEYTEGISQRMRVP [A2K],2.77
12,MGEISRIQYEMEYTEGISQRMRVP [A2G],3.03
13,MIEISRIQYEMEYTEGISQRMRVP [A2I],2.17
14,MYEISRIQYEMEYTEGISQRMRVP [A2Y],1.95
15,MWEISRIQYEMEYTEGISQRMRVP [A2W],1.51
16,MTEISRIQYEMEYTEGISQRMRVP [A2T],2.74
17,MAEISRIVYEMEYTEGISQRMRVP [Q8V],1.45
18,MAEISRIAYEMEYTEGISQRMRVP [Q8A],2.31
19,MAEISRIFYEMEYTEGISQRMRVP [Q8F],1.58
20,MAEISRILYEMEYTEGISQRMRVP [Q8L],1.6
21,MAEISRICYEMEYTEGISQRMRVP [Q8C],1.9
22,MAEISRIDYEMEYTEGISQRMRVP [Q8D],2.85
23,MAEISRIMYEMEYTEGISQRMRVP [Q8M],1.94
24,MAEISRIYYEMEYTEGISQRMRVP [Q8Y],1.75

row,Variant,protein stability index
1,MAEISRISYEMEYTEGISQRMRVP [Q8S],2.71
2,MAEISRIEYEMEYTEGISQRMRVP [Q8E],3.02
3,MAEISRIGYEMEYTEGISQRMRVP [Q8G],2.9
4,MAEISRIPYEMEYTEGISQRMRVP [Q8P],3.03
5,MAEISRIQYEMEYTEGISQRMRCP [V23C],2.87
6,MAEISRIQYEMEYTEGISQRMREP [V23E],2.73
7,MAEISRIQYEMEYTEGISQRMRKP [V23K],3.43
8,MAEISRIQYEMEYTEGISQRMRNP [V23N],2.61
9,MAEISRIQYEMEYTEGISQRMRGP [V23G],2.72
10,MAEISRIQYEQEYTEGISQRMRVP [M11Q],3.35
11,MAEISRIQYEHEYTEGISQRMRVP [M11H],3.38
12,MAEISRIQYEIEYTEGISQRMRVP [M11I],2.16
13,MAEISRIQYEGEYTEGISQRMRVP [M11G],3.28
14,MAEISRIQYEYEYTEGISQRMRVP [M11Y],2.67
15,MAEISRIQYEPEYTEGISQRMRVP [M11P],3.2
16,MAEISRIQYEMEYTEGIYQRMRVP [S18Y],1.92
17,MAEISRIQYEMEYTEGIIQRMRVP [S18I],1.66
18,MAEISRIQYEMEYTEGIKQRMRVP [S18K],2.27
19,MAEISRIQYEMEYTEGIMQRMRVP [S18M],1.94
20,MAEISRIQYEMEYTEGIVQRMRVP [S18V],1.74
21,MAEISRIQYEMEYTEGILQRMRVP [S18L],1.82
22,MAEISRIQYEMEYTEGIPQRMRVP [S18P],2.65
